Our source for the fold increase of affinity compared to fl PNRC (two-hybrid β-galactosidase) values is article PMC3644619.

For the experiment, the target named is hormone-binding domain (HBD) of ERα. The experiment in a line: two-hybrid.
Chain of hormone-binding domain (HBD) of ERα (P03372 whole entry, the tested form may be a part): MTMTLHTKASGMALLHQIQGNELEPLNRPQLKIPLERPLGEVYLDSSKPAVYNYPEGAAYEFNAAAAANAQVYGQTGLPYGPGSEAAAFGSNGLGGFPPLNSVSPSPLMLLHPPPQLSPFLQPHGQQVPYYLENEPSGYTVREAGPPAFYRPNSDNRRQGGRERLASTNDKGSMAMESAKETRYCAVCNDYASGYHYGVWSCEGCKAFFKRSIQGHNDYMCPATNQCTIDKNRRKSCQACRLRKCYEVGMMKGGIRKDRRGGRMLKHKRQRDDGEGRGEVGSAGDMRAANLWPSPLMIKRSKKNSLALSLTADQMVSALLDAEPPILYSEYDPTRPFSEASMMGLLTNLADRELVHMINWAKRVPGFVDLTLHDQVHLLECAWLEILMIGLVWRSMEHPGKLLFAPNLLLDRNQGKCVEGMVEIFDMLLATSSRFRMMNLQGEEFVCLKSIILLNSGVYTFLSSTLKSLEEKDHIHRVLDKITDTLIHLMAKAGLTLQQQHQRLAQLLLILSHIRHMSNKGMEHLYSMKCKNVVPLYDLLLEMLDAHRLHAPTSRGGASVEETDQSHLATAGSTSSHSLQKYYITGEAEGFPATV

Chain of PNRC1d (Q12796 186-327): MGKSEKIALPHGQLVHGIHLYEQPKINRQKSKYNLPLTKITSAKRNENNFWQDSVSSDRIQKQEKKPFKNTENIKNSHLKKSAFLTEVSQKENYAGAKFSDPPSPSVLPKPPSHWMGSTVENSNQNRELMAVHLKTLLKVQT

Take “PNRC1d (from UniProt Q12796 186-327) (natural protein)”: the fold increase of affinity compared to fl PNRC (two-hybrid β-galactosidase) is > 10 fold.
